# Reference: patent US20230213527A1 (published 2023)
# Primed or numbered codes have the meaning given here. Ends that are not written are not given here. FITC′ = not defined here
# T1: labeled peptide with N-terminal leucine (XAKLDEESILKQK-FITC, SEQ ID NO: 833, X = L)
# T1 peptide: LAKLDEESILKQK-{FITC′}
# Columns and labels:
# Test in all cases: fluorescence polarization
# [1] = target: labeled peptide with N-terminal isoleucine (X…-FITC, SEQ ID NO: 833, X = I) (C-terminal FITC label)
# [2] = target: T1, labeled peptide with N-terminal leucine …
# [3] = target: labeled peptide with N-terminal valine (X…-FITC, SEQ ID NO: 833, X = V) (C-terminal FITC label)
binder,measurement,setting,value
PS961 (designed binder) MPTAASATESAIEDTPAPARPEVDGRTKPKRQPRYHVVLWDDDDHTYQYVVVMLRSLFGHPPSRGYRMAKEMDTQGRVIVLTTTREHAELKRDQIHAFGRDRLLARSKGSMKASIEAEE,Kd,[1],68 nM
same,Kd,[2],55 nM
same,Kd,[3],144 nM
